Source: the Human Domainome abundance scans (Beltran et al. 2025)
± gives the uncertainty stated by the source.

B1: Retinoic acid receptor beta, residues 85 to 161; numbered along this chain, P10826 (parent)
chain: YKPCFVCQDKSSGYHYGVSACEGCKGFFRRSIQKNMIYTCHRDKNCVINKVTRNRCQYCRLQKCFEVGMSKESVRND

Variants of: B1
Experiment: abundance fitness (aPCA) (normalised: wild type 0, dead -1); higher = more abundant; growth selection in yeast, the domain comes from the species named
Conditions: Homo sapiens
YKPCFVCQDKSSGYHYGVSACEGCKGFFRRSIQKNMIYTCHRDKNCVINKVTRNRCQYCRLQKCFEVGMQKESVRND showed an abundance fitness of -0.009 ± 0.074. Variant YKPCFVCQDKSSGYHYGVSACEGCKGFFRRSIQKNMIYTCHRDKNCVINKVTRNRCQYCRLQKCFEVGMAKESVRND has an abundance fitness of -0.047 ± 0.047. Work on YKPCFVCQDKSSGYHYGVSACEGCKGFFRRSIQKNMIYTCHRDKNCVINKVTRNRCQYCRLQKCFEVGMMKESVRND yielded an abundance fitness of -0.115 ± 0.092. Variant YKPCFVCQDKSSGYHYGVSACEGCKGFFRRSIQKNMIYTCHRDKNCVINKVTRNRCQYCRLQKCFEVGMLKESVRND has an abundance fitness of 0.071 ± 0.053. Variant YKPCFVCQDKSSGYHYGVSACEGCKGFFRRSIQKNMIYTCHRDKNCVINKVTRNRCQYCRLQKCFEVGMCKESVRND has an abundance fitness of -0.076 ± 0.067. YKPCFVCQDKSSGYHYGVSACEGCKGFFRRSIQKNMIYTCHRDKNCVINKVTRNRCQYCRLQKCFEVGMKKESVRND gave an abundance fitness of 0.078 ± 0.05. With YKPCFVCQDKSSGYHYGVSACEGCKGFFRRSIQKNMIYTCHRDKNCVINKVTRNRCQYCRLQKCFEVGMIKESVRND the abundance fitness was 0.262 ± 0.14. Variant YKPCFVCQDKSSGYHYGVSACEGCKGFFRRSIQKNMIYTCHRDKNCVINKVTRNRCQYCRLQKCFEVGMEKESVRND has an abundance fitness of 0.039 ± 0.052. Work on YKPCFVCQDKSSGYHYGVSACEGCKGFFRRSIQKNMIYTCHRDKNCVINKVTRNRCQYCRLQKCFEVGMFKESVRND yielded an abundance fitness of -0.111 ± 0.089. In the case of YKPCFVCQDKSSGYHYGVSACEGCKGFFRRSIQKNMIYTCHRDKNCVINKVTRNRCQYCRLQKCFEVGMDKESVRND, the abundance fitness is reported as -0.085 ± 0.067. For YKPCFVCQDKSSGYHYGVSACEGCKGFFRRSIQKNMIYTCHRDKNCVINKVTRNRCQYCRLQKCFEVGMGKESVRND, the abundance fitness was -0.184 ± 0.037. YKPCFVCQDKSSGYHYGVSACEGCKGFFRRSIQKNMIYTCHRDKNCVINKVTRNRCQYCRLQKCFEVGMPKESVRND gave an abundance fitness of -0.304 ± 0.094. In the case of YKPCFVCQDKSSGYHYGVSACEGCKGFFRRSIQKNMIYTCHRDKNCVINKVTRNRCQYCRLQKCFQVGMSKESVRND, the abundance fitness is reported as -0.011 ± 0.057. Work on YKPCFVCQDKSSGYHYGVSACEGCKGFFRRSIQKNMIYTCHRDKNCVINKVTRNRCQYCRLQKCFPVGMSKESVRND yielded an abundance fitness of -0.595 ± 0.13. With YKPCFVCQDKSSGYHYGVSACEGCKGFFRRSIQKNMIYTCHRDKNCVINKVTRNRCQYCRLQKCFTVGMSKESVRND the abundance fitness was 0.008 ± 0.07. YKPCFVCQDKSSGYHYGVSACEGCKGFFRRSIQKNMIYTCHRDKNCVINKVTRNRCQYCRLQKCFSVGMSKESVRND gave an abundance fitness of -0.078 ± 0.047. With YKPCFVCQDKSSGYHYGVSACEGCKGFFRRSIQKNMIYTCHRDKNCVINKVTRNRCQYCRLQKCFRVGMSKESVRND the abundance fitness was 0.011 ± 0.034. For YKPCFVCQDKSSGYHYGVSACEGCKGFFRRSIQKNMIYTCHRDKNCVINKVTRNRCQYCRLQKCFYVGMSKESVRND, the abundance fitness was -0.136 ± 0.085. Work on YKPCFVCQDKSSGYHYGVSACEGCKGFFRRSIQKNMIYTCHRDKNCVINKVTRNRCQYCRLQKCFVVGMSKESVRND yielded an abundance fitness of -0.032 ± 0.042. YKPCFVCQDKSSGYHYGVSACEGCKGFFRRSIQKNMIYTCHRDKNCVINKVTRNRCQYCRLQKCFWVGMSKESVRND gave an abundance fitness of -0.139 ± 0.054. With YKPCFVCQDKSSGYHYGVSACEGCKGFFRRSIQKNMIYTCHRDKNCVINKVTRNRCQYCRLQKCFELGMSKESVRND the abundance fitness was -0.084 ± 0.043. In the case of YKPCFVCQDKSSGYHYGVSACEGCKGFFRRSIQKNMIYTCHRDKNCVINKVTRNRCQYCRLQKCFETGMSKESVRND, the abundance fitness is reported as -0.178 ± 0.055. In the case of YKPCFVCQDKSSGYHYGVSACEGCKGFFRRSIQKNMIYTCHRDKNCVINKVTRNRCQYCRLQKCFEAGMSKESVRND, the abundance fitness is reported as -0.012 ± 0.043. Work on YKPCFVCQDKSSGYHYGVSACEGCKGFFRRSIQKNMIYTCHRDKNCVINKVTRNRCQYCRLQKCFECGMSKESVRND yielded an abundance fitness of -0.172 ± 0.081. In the case of YKPCFVCQDKSSGYHYGVSACEGCKGFFRRSIQKNMIYTCHRDKNCVINKVTRNRCQYCRLQKCFEKGMSKESVRND, the abundance fitness is reported as 0.017 ± 0.054. YKPCFVCQDKSSGYHYGVSACEGCKGFFRRSIQKNMIYTCHRDKNCVINKVTRNRCQYCRLQKCFEYGMSKESVRND gave an abundance fitness of -0.645 ± 0.2. Work on YKPCFVCQDKSSGYHYGVSACEGCKGFFRRSIQKNMIYTCHRDKNCVINKVTRNRCQYCRLQKCFEEGMSKESVRND yielded an abundance fitness of -0.282 ± 0.067. For YKPCFVCQDKSSGYHYGVSACEGCKGFFRRSIQKNMIYTCHRDKNCVINKVTRNRCQYCRLQKCFEDGMSKESVRND, the abundance fitness was -0.8 ± 0.22. Work on YKPCFVCQDKSSGYHYGVSACEGCKGFFRRSIQKNMIYTCHRDKNCVINKVTRNRCQYCRLQKCFEFGMSKESVRND yielded an abundance fitness of -0.054 ± 0.088. YKPCFVCQDKSSGYHYGVSACEGCKGFFRRSIQKNMIYTCHRDKNCVINKVTRNRCQYCRLQKCFESGMSKESVRND gave an abundance fitness of -0.059 ± 0.052. YKPCFVCQDKSSGYHYGVSACEGCKGFFRRSIQKNMIYTCHRDKNCVINKVTRNRCQYCRLQKCFEQGMSKESVRND gave an abundance fitness of -0.035 ± 0.065. For YKPCFVCQDKSSGYHYGVSACEGCKGFFRRSIQKNMIYTCHRDKNCVINKVTRNRCQYCRLQKCFEWGMSKESVRND, the abundance fitness was -0.636 ± 0.16. For YKPCFVCQDKSSGYHYGVSACEGCKGFFRRSIQKNMIYTCHRDKNCVINKVTRNRCQYCRLQKCFERGMSKESVRND, the abundance fitness was -0.291 ± 0.057. For YKPCFVCQDKSSGYHYGVSACEGCKGFFRRSIQKNMIYTCHRDKNCVINKVTRNRCQYCRLQKCFEGGMSKESVRND, the abundance fitness was -0.161 ± 0.056. In the case of YKPCFVCQDKSSGYHYGVSACEGCKGFFRRSIQKNMIYTCHRDKNCVINKVTRNRCQYCRLQKCFEHGMSKESVRND, the abundance fitness is reported as -0.354 ± 0.24. With YKPCFVCQDKSSGYHYGVSACEGCKGFFRRSIQKNMIYTCHRDKNCVINKVTRNRCQYCRLQKCFEMGMSKESVRND the abundance fitness was -0.063 ± 0.054.
